In patent US20250002605A1 (WUHAN YZY BIOPHARMA, published 2025):

T1: human EpCAM antigen (SB, Cat: 10694-H08H) (human, UniProt P16422 24-265)
T1 construct: Bought antigen immobilised on a CM5 chip
T1 sequence (looked up): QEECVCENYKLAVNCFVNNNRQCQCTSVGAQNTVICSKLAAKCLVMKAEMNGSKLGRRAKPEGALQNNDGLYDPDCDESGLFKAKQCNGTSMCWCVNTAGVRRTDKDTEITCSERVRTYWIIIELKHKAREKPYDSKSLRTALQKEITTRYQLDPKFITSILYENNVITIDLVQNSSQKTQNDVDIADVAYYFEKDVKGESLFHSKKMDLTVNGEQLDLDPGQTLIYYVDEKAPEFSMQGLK

T2: human EpCAM on the cell surface (human, UniProt P16422 24-314)
T2 construct: whole, on cells; also called EpCAM of cells; HCT116 cells
T2 sequence (looked up): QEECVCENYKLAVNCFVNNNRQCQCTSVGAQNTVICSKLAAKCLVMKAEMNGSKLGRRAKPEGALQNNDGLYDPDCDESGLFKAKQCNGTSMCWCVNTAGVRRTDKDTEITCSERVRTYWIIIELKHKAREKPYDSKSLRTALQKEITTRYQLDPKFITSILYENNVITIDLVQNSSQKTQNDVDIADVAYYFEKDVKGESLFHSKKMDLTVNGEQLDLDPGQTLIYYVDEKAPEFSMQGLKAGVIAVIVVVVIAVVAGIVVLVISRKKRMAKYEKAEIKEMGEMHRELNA


How the values were obtained:
[1] = molecular target: T1, human EpCAM antigen (SB, Cat: …); assay: SPR (Biacore T200), antigen amine-coupled on CM5, antibody as analyte, 1:1 fit; D0 sample
[2] = molecular target: human CD3 antigen (SB, Cat: CT038-H2508H) (human, UniProt P07766 23-126; P04234 22-105); assay: as above
[3] = molecular target: T2, human EpCAM on the cell surface; assay: flow cytometry (FACS) on HCT116 cells, PE anti-human IgG Fc detection

Binder	Kd [1] [µM]	Kd [2] [µM]	EC50 [3] [µM]
M701C (bispecific antibody, human IgG1, kappa, YBODY format; also called bispecific antibody M701C) light: ELVMTQSPSSLTVTAGEKVTMSCKSSQSLLNSGNQKNYLTWYQQKPGQPPKLLIYWASTRESGVPDRFTGSGSGTDFTLTISSVQAEDLAVYYCQNDYSYPLTFGAGTKLEIKRTVAAPSVFIFPPSDEQLKSGTASVVCLLNNFYPREAKVQWKVDNALQSGNSQESVTEQDSKDSTYSLSSTLTLSKADYEKHKVYACEVTHQGLSSPVTKSFNRGEC heavy: EVQLLEQSGAELVRPGTSVKISCKASGYAFTNYWLGWVKQRPGHGLEWIGDIFPGSGNIHYNEKFKGKATLTADKSSSTAYMQLSSLTFEDSAVYFCARLRNWDEPMDYWGQGTTVTVSSASTKGPSVFPLAPSSKSTSGGTAALGCLVKDYFPEPVTVSWNSGALTSGVHTFPAVLQSSGLYSLSSVVTVPSSSLGTQTYICNVNHKPSNTKVDKKVEPKSCDKTHTCPPCPAPELLGGPSVFLFPPKPKDTLMISRTPEVTCVVVDVSHEDPEVKFNWYVDGVEVHNAKTKPREEQYNSTYRVVSVLTVLHQDWLNGKEYKCKVSNKALPAPIEKTISKAKGQPREPQVYTLPPSRDELTKNQVSLWCLVKGFYPSDIAVEWESNGQPENNYDTTPPVLDSDGSFFLYSDLTVDKSRWQQGNVFSCSVMHEALHNHYTQKSLSLSPGK EVQLVESGGGLVQPGGSLRLSCKASGYTFTRYTMHWVRQAPGKGLEWIGYINPSRGYTNYNQKVKDRFTISRDNSKNTAFLQMDSLRPEDTGVYFCARYYDDHYCLDYWGQGTPVTVSSGGGGSGGGGSGGGGSDIQMTQSPSSLSASVGDRVTITCSASSSVSYMNWYQQTPGKAPKRWIYDTSKLASGVPSRFSGSGSGTDYTFTISSLQPEDIATYYCQQWSSNPFTFGQGTKVEIKRGAAAEPKSCDKTHTCPPCPAPELLGGPSVFLFPPKPKDTLMISRTPEVTCVVVDVSHEDPEVKFNWYVDGVEVHNAKTKPREEQYNSTYRVVSVLTVLHQDWLNGKEYKCKVSNKALPAPIEKTISKAKGQPREPQVYTLPPSRDELTKNQVSLTCRVKGFYPSDIAVEWESNGQPENNYKTTPPVLKSDGSFFLASKLTVDKSRWQQGNVFSCSVMHEALHNHYTQKSLSLSPGK	0.0186	0.0372	
M701F (bispecific antibody, human IgG1, kappa, YBODY format; also called bispecific antibody M701F) light: ELVMTQSPSSLTVTAGEKVTMSCKSSQSLLNSGNQKNYLTWYQQKPGQPPKLLIYWASTRESGVPDRFTGSGSGTDFTLTISSVQAEDLAVYYCQNDYSYPLTFGAGTKLEIKRTVAAPSVFIFPPSDEQLKSGTASVVCLLNNFYPREAKVQWKVDNALQSGNSQESVTEQDSKDSTYSLSSTLTLSKADYEKHKVYACEVTHQGLSSPVTKSFNRGEC heavy: EVQLLEQSGAELVRPGTSVKISCKASGYAFTNYWLGWVKQRPGHGLEWIGDIFPGSGNIHYNEKFKGKATLTADKSSSTAYMQLSSLTFEDSAVYFCARLRNWDEPMDYWGQGTTVTVSSASTKGPSVFPLAPSSKSTSGGTAALGCLVKDYFPEPVTVSWNSGALTSGVHTFPAVLQSSGLYSLSSVVTVPSSSLGTQTYICNVNHKPSNTKVDKKVEPKSCDKTHTCPPCPAPELLGGPSVFLFPPKPKDTLMISRTPEVTCVVVDVSHEDPEVKFNWYVDGVEVHNAKTKPREEQYNSTYRVVSVLTVLHQDWLNGKEYKCKVSNKALPAPIEKTISKAKGQPREPQVYTLPPSRDELTKNQVSLWCLVKGFYPSDIAVEWESNGQPENNYDTTPPVLDSDGSFFLYSDLTVDKSRWQQGNVFSCSVMHEALHNHYTQKSLSLSPGK QVQLVQSGAEVKKPGASVKVSCKASGYTFISYTMHWVRQAPGQGLEWMGYINPRSGYTHYNQKLKDKATLTADKSASTAYMELSSLRSEDTAVYYCARSAYYDYDGFAYWGQGTLVTVSSGGGGSGGGGSGGGGSDIQMTQSPSSLSASVGDRVTITCSASSSVSYMNWYQQKPGKAPKRLIYDTSKLASGVPSRFSGSGSGTDFTLTISSLQPEDFATYYCQQWSSNPPTFGGGTKVEIKRGAAAEPKSCDKTHTCPPCPAPELLGGPSVFLFPPKPKDTLMISRTPEVTCVVVDVSHEDPEVKFNWYVDGVEVHNAKTKPREEQYNSTYRVVSVLTVLHQDWLNGKEYKCKVSNKALPAPIEKTISKAKGQPREPQVYTLPPSRDELTKNQVSLTCRVKGFYPSDIAVEWESNGQPENNYKTTPPVLKSDGSFFLASKLTVDKSRWQQGNVFSCSVMHEALHNHYTQKSLSLSPGK	0.0179	0.0613	
M701E (bispecific antibody, YBODY format; also called bispecific antibody M701E) light: ELVMTQSPSSLTVTAGEKVTMSCKSSQSLLNSGNQKNYLTWYQQKPGQPPKLLIYWASTRESGVPDRFTGSGSGTDFTLTISSVQAEDLAVYYCQNDYSYPLTFGAGTKLEIKRTVAAPSVFIFPPSDEQLKSGTASVVCLLNNFYPREAKVQWKVDNALQSGNSQESVTEQDSKDSTYSLSSTLTLSKADYEKHKVYACEVTHQGLSSPVTKSFNRGEC heavy: EVQLLEQSGAELVRPGTSVKISCKASGYAFTNYWLGWVKQRPGHGLEWIGDIFPGSGNIHYNEKFKGKATLTADKSSSTAYMQLSSLTFEDSAVYFCARLRNWDEPMDYWGQGTTVTVSSASTKGPSVFPLAPSSKSTSGGTAALGCLVKDYFPEPVTVSWNSGALTSGVHTFPAVLQSSGLYSLSSVVTVPSSSLGTQTYICNVNHKPSNTKVDKKVEPKSCDKTHTCPPCPAPELLGGPSVFLFPPKPKDTLMISRTPEVTCVVVDVSHEDPEVKFNWYVDGVEVHNAKTKPREEQYNSTYRVVSVLTVLHQDWLNGKEYKCKVSNKALPAPIEKTISKAKGQPREPQVYTLPPSRDELTKNQVSLWCLVKGFYPSDIAVEWESNGQPENNYDTTPPVLDSDGSFFLYSDLTVDKSRWQQGNVFSCSVMHEALHNHYTQKSLSLSPGK not shown	0.0231		
M701D (bispecific antibody, human IgG1, kappa, YBODY format; also called bispecific antibody M701D) light: ELVMTQSPSSLTVTAGEKVTMSCKSSQSLLNSGNQKNYLTWYQQKPGQPPKLLIYWASTRESGVPDRFTGSGSGTDFTLTISSVQAEDLAVYYCQNDYSYPLTFGAGTKLEIKRTVAAPSVFIFPPSDEQLKSGTASVVCLLNNFYPREAKVQWKVDNALQSGNSQESVTEQDSKDSTYSLSSTLTLSKADYEKHKVYACEVTHQGLSSPVTKSFNRGEC heavy: EVQLLEQSGAELVRPGTSVKISCKASGYAFTNYWLGWVKQRPGHGLEWIGDIFPGSGNIHYNEKFKGKATLTADKSSSTAYMQLSSLTFEDSAVYFCARLRNWDEPMDYWGQGTTVTVSSASTKGPSVFPLAPSSKSTSGGTAALGCLVKDYFPEPVTVSWNSGALTSGVHTFPAVLQSSGLYSLSSVVTVPSSSLGTQTYICNVNHKPSNTKVDKKVEPKSCDKTHTCPPCPAPELLGGPSVFLFPPKPKDTLMISRTPEVTCVVVDVSHEDPEVKFNWYVDGVEVHNAKTKPREEQYNSTYRVVSVLTVLHQDWLNGKEYKCKVSNKALPAPIEKTISKAKGQPREPQVYTLPPSRDELTKNQVSLWCLVKGFYPSDIAVEWESNGQPENNYDTTPPVLDSDGSFFLYSDLTVDKSRWQQGNVFSCSVMHEALHNHYTQKSLSLSPGK EVQLLESGGGLVQPGGSLRLSCAASGFTFSSFPMAWVRQAPGKGLEWVSTISTSGGRTYYRDSVKGRFTISRDNSKNTLYLQMNSLRAEDTAVYYCAKFRQYSGGFDYWGQGTLVTVSSGGGGSGGGGSGGGGSDIQLTQPNSVSTSLGSTVKLSCTLSSGNIENNYVHWYQLYEGRSPTTMIYDDDKRPDGVPDRFSGSIDRSSNSAFLTIHNVAIEDEAIYFCHSYVSSFNVFGGGTKLTVLRQPGAAAEPKSCDKTHTCPPCPAPELLGGPSVFLFPPKPKDTLMISRTPEVTCVVVDVSHEDPEVKFNWYVDGVEVHNAKTKPREEQYNSTYRVVSVLTVLHQDWLNGKEYKCKVSNKALPAPIEKTISKAKGQPREPQVYTLPPSRDELTKNQVSLTCRVKGFYPSDIAVEWESNGQPENNYKTTPPVLKSDGSFFLASKLTVDKSRWQQGNVFSCSVMHEALHNHYTQKSLSLSPGK	0.0144		
M700 monoclonal antibody (antibody, human IgG1, kappa, V domains shown, also called anti-EpCAM monoclonal antibody control) VH: VQLLEQSGAELVRPGTSVKISCKASGYAFTNYWLGWVKQRPGHGLEWIGDIFPGSGNIHYNEKFKGKATLTADKSSSTAYMQLSSLTFEDSAVYFCARLRNWDEPMDYWGQGTTVTVSS VL: ELVMTQSPSSLTVTAGEKVTMSCKSSQSLLNSGNQKNYLTWYQQKPGQPPKLLIYWASTRESGVPDRFTGSGSGTDFTLTISSVQAEDLAVYYCQNDYSYPLTFGAGTKLEIKR			0.00178
